{"source": "paper PMC4825978", "about": "“A Hox Transcription Factor Collective Binds a Highly Conserved Distal-less cis-Regulatory Module to Generate Robust Transcriptional Outcomes”", "binders": {"B1": {"name": "DCRE wild-type full-length probe (dsDNA)", "DNA 1": "GGAATTTATGTCCGACAATATTTGGGAAATTAAATCATTCCCGCGGACAGTTTTATAGTGCGGGCGTGGC", "DNA 2": "GCCACGCCCGCACTATAAAACTGTCCGCGGGAATGATTTAATTTCCCAAATATTGTCGGACATAAATTCC"}}, "key": {"[1]": {"target": "T1, Exd51A (ExdN51A);Hth (in heterodimer) (Drosophila melanogaster?;Drosophila …, UniProt P40427;O46339 1-376;1-487, N291A|)", "T1 sequence 1": "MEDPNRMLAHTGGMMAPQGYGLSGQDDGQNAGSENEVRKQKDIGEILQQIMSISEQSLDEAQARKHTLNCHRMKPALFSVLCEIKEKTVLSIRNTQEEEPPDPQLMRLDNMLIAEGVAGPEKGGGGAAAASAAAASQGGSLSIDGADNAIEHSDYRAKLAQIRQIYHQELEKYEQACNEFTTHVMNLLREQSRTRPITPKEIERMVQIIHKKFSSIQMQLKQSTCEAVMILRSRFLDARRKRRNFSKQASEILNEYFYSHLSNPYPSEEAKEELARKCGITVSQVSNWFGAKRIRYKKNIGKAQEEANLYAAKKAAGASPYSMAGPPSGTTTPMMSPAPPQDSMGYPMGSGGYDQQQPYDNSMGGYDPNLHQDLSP", "T1 sequence 2": "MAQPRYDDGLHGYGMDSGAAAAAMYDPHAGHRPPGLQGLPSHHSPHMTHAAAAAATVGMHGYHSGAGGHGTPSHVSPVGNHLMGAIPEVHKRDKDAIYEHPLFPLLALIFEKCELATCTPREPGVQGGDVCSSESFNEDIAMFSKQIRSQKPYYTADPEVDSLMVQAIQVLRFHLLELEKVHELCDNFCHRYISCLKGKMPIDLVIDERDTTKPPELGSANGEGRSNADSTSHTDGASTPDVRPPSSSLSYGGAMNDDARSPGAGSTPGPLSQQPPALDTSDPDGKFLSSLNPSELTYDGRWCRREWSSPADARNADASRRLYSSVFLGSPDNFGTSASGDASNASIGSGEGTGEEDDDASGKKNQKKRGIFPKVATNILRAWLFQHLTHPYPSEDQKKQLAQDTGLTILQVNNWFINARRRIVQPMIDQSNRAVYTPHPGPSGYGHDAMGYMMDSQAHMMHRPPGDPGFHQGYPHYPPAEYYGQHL", "assay": "EMSA; 200 nM heterodimer, no Abd-A; no significant binding; Native PAGE EMSA, probe 0.36 uM, triplicate; buffer, salt, pH and temperature not given (as previously described). Further probes (single/paired sites, Hox point mutants; percent bound) only in S4 and S5 Figs, not in the material, number of rows unknown", "conditions": "protein: recombinant;recombinant; tags: ;His; copies: 1;1"}, "[2]": {"target": "Abd-A;Exd51A (ExdN51A);Hth (in heterodimer) (Drosophila melanogaster?;Drosophila …, UniProt P29555;P40427;O46339 261-590;1-376;1-487, |N291A|)", "sequence (P29555 261-590, stated change not applied, one chain of several)": "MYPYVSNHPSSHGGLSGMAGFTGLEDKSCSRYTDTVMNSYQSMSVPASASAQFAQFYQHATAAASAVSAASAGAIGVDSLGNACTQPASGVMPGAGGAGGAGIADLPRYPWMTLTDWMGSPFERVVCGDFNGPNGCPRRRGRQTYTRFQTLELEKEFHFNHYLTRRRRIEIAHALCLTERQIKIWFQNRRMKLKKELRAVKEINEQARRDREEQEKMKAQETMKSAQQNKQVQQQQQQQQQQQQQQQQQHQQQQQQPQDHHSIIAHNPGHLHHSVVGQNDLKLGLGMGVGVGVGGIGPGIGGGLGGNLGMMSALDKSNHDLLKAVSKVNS", "assay": "EMSA; Abd-A 37.5-300 nM with 200 nM ExdN51A/Hth; significant cooperative complex; Native PAGE EMSA, probe 0.36 uM, triplicate; buffer, salt, pH and temperature not given (as previously described). Further probes (single/paired sites, Hox point mutants; percent bound) only in S4 and S5 Figs, not in the material, number of rows unknown", "conditions": "protein: recombinant;recombinant;recombinant; tags: His;;His; copies: 1;1;1"}, "[3]": {"target": "Abd-A;Exd (in Exd/Hth heterodimer);Hth (in heterodimer) (Drosophila melanogaster?;Drosophila …, UniProt P29555;P40427;O46339 261-590;1-376;1-487, ||)", "sequence (P29555 261-590, one chain of several)": "as the sequence (P29555 261-590, stated change not applied, one chain of several) above", "assay": "EMSA; Abd-A 37.5-300 nM with 75 nM Exd/Hth; highly cooperative, third slower complex; Native PAGE EMSA, probe 0.36 uM, triplicate; buffer, salt, pH and temperature not given (as previously described). Further probes (single/paired sites, Hox point mutants; percent bound) only in S4 and S5 Figs, not in the material, number of rows unknown", "conditions": "protein: recombinant;recombinant;recombinant; tags: His;untagged;His; copies: 1;1;1"}}, "data": [{"binder": "B1", "values": [{"measurement": "binding result", "setting": "[1]", "value": "no binding"}, {"measurement": "binding result", "setting": "[2]", "value": "binds"}, {"measurement": "binding result", "setting": "[3]", "value": "binds"}]}]}
